Results published in US20260103513A1 (HEFEI TG IMMUNOPHARMA, published 2026).

Tests used:
[1] = target: T1, TIGIT protein overexpressed on cells (Homo sapiens (Human), UniProt Q495A1 22-244); assay: flow cytometry on CHO-K1-TIGIT cells, binding percentage (%)
T1 construct: also called CHO-K1-TIGIT
T1 sequence: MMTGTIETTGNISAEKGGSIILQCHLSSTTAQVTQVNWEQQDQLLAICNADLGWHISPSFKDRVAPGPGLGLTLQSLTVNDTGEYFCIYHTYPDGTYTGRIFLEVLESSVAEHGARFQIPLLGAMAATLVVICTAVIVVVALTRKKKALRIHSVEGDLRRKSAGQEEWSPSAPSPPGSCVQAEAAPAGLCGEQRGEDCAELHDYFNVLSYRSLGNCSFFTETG

[2] = target: T1, TIGIT protein overexpressed on cells; assay: flow cytometry competition on CHO-K1-TIGIT cells; blocked ligand CD155-mIgG2a-Fc, binding percentage (%)
[3] = target: T2, recombinant TIGIT extracellular domain-Fc fusion protein; assay: SPR, Biacore T200, TIGIT-Fc amine-coupled on CM5, antibody injected, 1:1 Langmuir model
T2 construct: Covalently coupled to the CM5 chip in the Biacore assay; also called TIGIT-Fc
Procedure: The Biacore method is a well-established objective assay for detecting the affinity and kinetics between proteins. The TIGIT antibody of the present disclosure was analyzed using Biacore T200 to characterize its affinity and binding kinetics.
The TIGIT extracellular domain-Fc fusion protein (TIGIT-Fc) was covalently attached to a CM5 (GE) chip using a standard amino coupling method. A series of TIGIT antibodies diluted in PBS buffer at a concentration gradient was then injected in cycles, followed by regeneration with 10 mM NaOH solution. The antigen-antibody binding kinetics were monitored for 3 minutes, followed by dissociation kinetics for 10 minutes. The resulting data were analyzed using GE's BIAevaluation software in a 1:1 (Langmuir) binding model.

[4] = target: T1, TIGIT protein overexpressed on cells; assay: flow cytometry on 293T-TIGIT cells, Alexa-647 anti-human Fc, MFI
[5] = target: T1, TIGIT protein overexpressed on cells; assay: flow cytometry competition on 293T-TIGIT cells; blocked ligand CD155-mIgG2a-Fc, APC anti-mouse IgG2a, MFI
[6] = target: T3, Human TIGIT-His tag fusion protein (human, UniProt Q495A1 22-141); assay: ELISA, human TIGIT-His coated, HRP anti-human IgG, OD450
T3 construct: extracellular domain; Bought (Acro); also called TIGIT extracellular domain-His tag fusion protein; TIGIT protein; not shown: His tag
T3 sequence (looked up): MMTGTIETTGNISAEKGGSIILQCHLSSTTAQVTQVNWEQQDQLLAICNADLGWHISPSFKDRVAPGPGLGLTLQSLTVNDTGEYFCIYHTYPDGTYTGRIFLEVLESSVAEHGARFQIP

[7] = target: T3, Human TIGIT-His tag fusion protein; assay: competition ELISA on coated TIGIT-His; blocked ligand CD155-Biotin; the sheet does not name the species of the TIGIT-His
[8] = target: T4, Cynomolgus monkey TIGIT-His tag fusion protein (cynomolgus monkey, UniProt A0A7N9I9V4 89-209); assay: ELISA, cynomolgus TIGIT-His coated, HRP anti-human IgG, OD450
T4 construct: extracellular domain; Bought (Acro); also called TIGIT extracellular domain-His tag fusion protein; TIGIT protein; not shown: His tag

B1: H401LV2-mIgG2a (antibody)
heavy: QVQLQESGPGLVKPSQTLSLTCTVTGSSITSDYAWNWIRQFPGKKLEWMGYITYSGRTTYNPSLKSRITISRDTSKNQFSLKLSSVTAADTATYYCARWGLLRRYFDYWGQGTLLTVSSAKTTAPSVYPLAPVCGDTTGSSVTLGCLVKGYFPEPVTLTWNSGSLSSGVHTFPAVLQSDLYTLSSSVTVTSSTWPSQSITCNVAHPASSTKVDKKIEPRGPTIKPCPPCKCPAPNLLGGPSVFIFPPKIKDVLMISLSPIVTCVVVDVSEDDPDVQISWFVNNVEVHTAQTQTHREDYNSTLRVVSALPIQHQDWMSGKEFKCKVNNKDLPAPIERTISKPKGSVRAPQVYVLPPPEEEMTKKQVTLTCMVTDFMPEDIYVEWTNNGKTELNYKNTEPVLDSDGSYFMYSKLRVEKKNWVERNSYSCSVVHEGLHNHHTTKSFSRTPGK
light: DIVMTQSPSSMSTSVGDRVTITCRASQDVFNQVAWYQQKPGKSPKLLIYSASFRYTGVPDRFSGSGSGTDFTFTISSVQAEDFATYYCQQHYSTPLTFGAGTKLELKRADAAPTVSIFPPSSEQLTSGGASVVCFLNNFYPKDINVKWKIDGSERQNGVLNSWTDQDSKDSTYSMSSTLTLTKDEYERHNSYTCEATHKTSTSPIVKSFNRNEC
notes: Mouse IgG2a constant region, mouse kappa light chain (H401LV2-mK); also called TIGIT antibody H401LV2-mIgG2a
Q: B1 was tested. Which “EC50 (read off the curve)” value [1] did it give?
A: ~0.05 µg/mL

Q: What about the “IC50 (read off the curve)” value [2] of the same binder?
A: ~0.2 µg/mL

B2: 22G2 (antibody, mouse IgG2a, kappa, V domains shown)
VH: QVQLQESGPGLVKPSETLSLTCTVSGGSVSSGIYYWSWIRQPPGKGLEWIGYIYYSGSTNYNPSLKSRVTISVDTSKNQFSLKLSSVTAADTAVYYCARDYYVSGNYYNVDYYFFGVDVWGQGTTVTVSS
VL: EIVLTQSPATLSLSPGERATLSCRASQSVSSYLAWYQQKPGQAPRLLIYDASNRATGIPARFSGSGSGTDFTLTISSLEPEDFAVYYCQQRSNWPPLFTFGPGTKVDIKR
notes: Comparator, mouse IgG2a heavy and mouse kappa light constant regions; the printed heavy chain reads VVVAVSE (as in the D265A form) although it is named only mIgG2a; also called 22G2-mIgG2a; 22G2 antibody
Q: How did the “EC50 (read off the curve)” value [1] turn out when B2 was run?
A: ~0.2 µg/mL

Q: And the “IC50 (read off the curve)” value [2]?
A: ~0.2 µg/mL

B3: 4.1D3 (antibody, mouse IgG2a, kappa, V domains shown)
VH: EVQLQQSGPGLVKPSQTLSLTCAISGDSVSSNSAAWNWIRQSPSRGLEWLGKTYYRFKWYSDYAVSVKGRITINPDTSKNQFSLQLNSVTPEDTAVFYCTRESTTYDLLAGPFDYWGQGTLVTVSS
VL: not shown
notes: Comparator, made with mouse IgG2a heavy and mouse kappa light constant regions; also called 4.1D3-mIgG2a; 4.1D3 antibody
Q: Which “EC50 (read off the curve)” value [1] does the source give for B3 here?
A: ~0.1 µg/mL

Q: And the “IC50 (read off the curve)” value [2]?
A: ~0.3 µg/mL

B4: H401LV2 (antibody, V domains shown)
VH: QVQLQESGPGLVKPSQTLSLTCTVTGSSITSDYAWNWIRQFPGKKLEWMGYITYSGRTTYNPSLKSRITISRDTSKNQFSLKLSSVTAADTATYYCARWGLLRRYFDYWGQGTLLTVSS
VL: DIVMTQSPSSMSTSVGDRVTITCRASQDVFNQVAWYQQKPGKSPKLLIYSASFRYTGVPDRFSGSGSGTDFTFTISSVQAEDFATYYCQQHYSTPLTFGAGTKLELK
notes: also called matured TIGIT antibody H401LV2
Q: Which results are given for B4?
A: Kd [3]: ≤ 0.00508 nM; koff [3]: ≤ 1e-06 s⁻¹; kon [3]: 197000 M⁻¹ s⁻¹

B5: H401LV2-hIgG1 (antibody)
heavy: not shown
light: DIVMTQSPSSMSTSVGDRVTITCRASQDVFNQVAWYQQKPGKSPKLLIYSASFRYTGVPDRFSGSGSGTDFTFTISSVQAEDFATYYCQQHYSTPLTFGAGTKLELKRTVAAPSVFIFPPSDEQLKSGTASVVCLLNNFYPREAKVQWKVDNALQSGNSQESVTEQDSKDSTYSLSSTLTLSKADYEKHKVYACEVTHQGLSSPVTKSFNRGEC
notes: Wild-type human IgG1 constant region, human kappa light chain (H401LV2-hK); also called TIGIT antibody H401LV2
Q: Which “EC50 (read off the curve)” value [4] does the source give for B5 here?
A: ~0.4 µg/mL

Q: And the “IC50 (read off the curve)” value [5]?
A: ~0.5 µg/mL

Q: What about the “EC50 (read off the curve)” value [6] of the same binder?
A: ~0.04 µg/mL

Q: What about the “IC50 (read off the curve)” value [7] of the same binder?
A: ~0.8 µg/mL

Q: And the “EC50 (read off the curve)” value [8]?
A: ~0.02 µg/mL

B6: H401LV2-hIgG4S228P (antibody)
heavy: not shown
light: DIVMTQSPSSMSTSVGDRVTITCRASQDVFNQVAWYQQKPGKSPKLLIYSASFRYTGVPDRFSGSGSGTDFTFTISSVQAEDFATYYCQQHYSTPLTFGAGTKLELKRTVAAPSVFIFPPSDEQLKSGTASVVCLLNNFYPREAKVQWKVDNALQSGNSQESVTEQDSKDSTYSLSSTLTLSKADYEKHKVYACEVTHQGLSSPVTKSFNRGEC
notes: also called TIGIT antibody H401LV2
Q: How did the “IC50 (read off the curve)” value [5] turn out when B6 was run?
A: ~0.5 µg/mL

Q: What about the “EC50 (read off the curve)” value [6] of the same binder?
A: ~0.04 µg/mL

Q: What about the “IC50 (read off the curve)” value [7] of the same binder?
A: ~0.8 µg/mL

Q: What about the “EC50 (read off the curve)” value [8] of the same binder?
A: ~0.02 µg/mL

B7: Hu4A501 (antibody, V domains shown)
VH: QVQLQESGPGLVKPSQTLSLTCTVTGSSITSDYAWNWIRQFPGKKLEWMGYITYSGRTTYNPSLKSRITISRDTSKNQFSLKLSSVTAADTATYYCARWGLLRRYFDYWGQGTLLTVSS
VL: DIVMTQSPSSMSTSVGDRVTITCRASQDVFTAVAWYQQKPGKSPKLLIYSASFRYTGVPDRFSGSGSGTDFTFTISSVQAEDFATYYCQQHYSTPLTFGAGTKLELKR
notes: also called parental antibody Hu4A501; parent antibody Hu4A501
Q: With B7 as the binder, how does the “IC50 (read off the curve)” value [7] read?
A: ~0.8 µg/mL

Q: And the Kd [3]?
A: 5.06 nM

Q: And the koff [3]?
A: 0.000501 s⁻¹

Q: What about the kon [3] of the same binder?
A: 98900 M⁻¹ s⁻¹

Q: What about the “EC50 (read off the curve)” value [8] of the same binder?
A: ~0.04 µg/mL

B8: H401LV2-hIgG1LALA (antibody)
heavy: not shown
light: DIVMTQSPSSMSTSVGDRVTITCRASQDVFNQVAWYQQKPGKSPKLLIYSASFRYTGVPDRFSGSGSGTDFTFTISSVQAEDFATYYCQQHYSTPLTFGAGTKLELKRTVAAPSVFIFPPSDEQLKSGTASVVCLLNNFYPREAKVQWKVDNALQSGNSQESVTEQDSKDSTYSLSSTLTLSKADYEKHKVYACEVTHQGLSSPVTKSFNRGEC
notes: as for B6
Q: Which “EC50 (read off the curve)” value [4] does the source give for B8 here?
A: ~0.6 µg/mL

Q: What about the “IC50 (read off the curve)” value [5] of the same binder?
A: ~0.5 µg/mL

Q: And the “EC50 (read off the curve)” value [6]?
A: ~0.04 µg/mL

Q: And the “IC50 (read off the curve)” value [7]?
A: ~0.8 µg/mL

Q: What about the “EC50 (read off the curve)” value [8] of the same binder?
A: ~0.02 µg/mL
